Positions count from the first letter of the chain named.

One assay has as its system cynomolgus ABCC4. The experiment in a line: Flow cytometry (FACS) binding to C6 cells stably transfected to express cynomolgus ABCC4 (different experiment, different C6.cC4 cell line, Table 4). Further details: key to Cynomolgus ABCC4 binding: Negative (−)=Rmax (MFI) below background level; Positive (+)=MFI>3× background level. To be noted: different C6.cC4 cell line, C6 cells stably transfected to express cynomolgus ABCC4, FACS; Table 4. The protocol:
(§1) Binding titration of recombinant antibodies to ABCC4 transfectants was performed by serial dilution of antibodies from about 666 nM. Diluted antibody in flow cytometry buffer was incubated with cells on ice for 30 min. After 2 washes with flow cytometry buffer, bound antibody was detected with PE-labeled F(ab′)2 fragment goat anti-human IgG (Jackson ImmunoResearch) diluted 1:200 in flow cytometry buffer and incubated with cells for 20 min on ice. After 2 washes with flow cytometry buffer fluorescence was measured on an Attune N×T flow cytometer. Data were analyzed with GraphPad Prism 8.0 software to determine EC50's.
(§2) Human embryonic kidney HEK 293T cells and murine C6 (ATCC CCL-107) were transfected with human or cynomolgus ABCC4 cDNA with C-terminal fused FLAG tag in a pMONO-hygro vector with Lipofectamine 3000 (Invitrogen #L3000001). The cells were treated with 0.2 mg/ml and 0.5 mg/ml hygromycin respectively for about 2 weeks while cultivated in DMEM and 10% FBS with 0.2 mg/ml hygromycin and 0.5 mg/ml hygromycin, respectively. The cells were washed with PBS, and stained with […] of anti-FLAG-PE after fixing and permeablization. Clones expressing ABCC4 were single-cell sorted into 200 μl DMEM with 10% FBS using a BD Aria FACS machine and cultivated in 96 well plates using standard techniques in an incubator at 37° C. and 5% CO 2. Two weeks later clones expressing high levels of ABCC4 were screened and amplified.
(§3) Antibody binding to cells was evaluated by flow cytometry. Murine C6 cells stably transfected to express human or cynomolgus ABCC4 were washed once in flow cytometry buffer (PBS+2% FBS+0.02% sodium azide), resuspended at 2×10^6 cells/mL in flow cytometry buffer, and dispensed into 96-well microtiter plates at 0.1 mL/well. Recombinant antibodies were added to cells at 5 ug/mL for initial binding confirmation, or serially diluted from 100 ug/mL in flow cytometry buffer. After incubating cells on ice for 30 min, cells were washed twice with flow cytometry buffer. Bound antibody was detected with PE-labeled F(ab′)2 fragment goat anti-human IgG (Jackson ImmunoResearch) and evaluated on an Attune N×T flow cytometer. EC50 is calculated to be the concentration of antibody that gives half maximal response.
(§4) In a different experiment, using a different C6.cC4 cell line, detecting the binding of anti-ABCC4 antibodies to C6 cells stably transfected to express human ABCC4 measured by FACS and to C6 cells stably transfected to express cynomolgus ABCC4 measured by FACS, the results set forth in Table 4 were obtained. Negative (−)=Rmax (MFI) below background level. Positive (+)=MFI>3× background level.

In a further assay the target is T1, human ABCC4 (Homo sapiens, UniProt O15439).
T1 construct: expressed in transfected cells
T1 sequence (O15439 1-1325): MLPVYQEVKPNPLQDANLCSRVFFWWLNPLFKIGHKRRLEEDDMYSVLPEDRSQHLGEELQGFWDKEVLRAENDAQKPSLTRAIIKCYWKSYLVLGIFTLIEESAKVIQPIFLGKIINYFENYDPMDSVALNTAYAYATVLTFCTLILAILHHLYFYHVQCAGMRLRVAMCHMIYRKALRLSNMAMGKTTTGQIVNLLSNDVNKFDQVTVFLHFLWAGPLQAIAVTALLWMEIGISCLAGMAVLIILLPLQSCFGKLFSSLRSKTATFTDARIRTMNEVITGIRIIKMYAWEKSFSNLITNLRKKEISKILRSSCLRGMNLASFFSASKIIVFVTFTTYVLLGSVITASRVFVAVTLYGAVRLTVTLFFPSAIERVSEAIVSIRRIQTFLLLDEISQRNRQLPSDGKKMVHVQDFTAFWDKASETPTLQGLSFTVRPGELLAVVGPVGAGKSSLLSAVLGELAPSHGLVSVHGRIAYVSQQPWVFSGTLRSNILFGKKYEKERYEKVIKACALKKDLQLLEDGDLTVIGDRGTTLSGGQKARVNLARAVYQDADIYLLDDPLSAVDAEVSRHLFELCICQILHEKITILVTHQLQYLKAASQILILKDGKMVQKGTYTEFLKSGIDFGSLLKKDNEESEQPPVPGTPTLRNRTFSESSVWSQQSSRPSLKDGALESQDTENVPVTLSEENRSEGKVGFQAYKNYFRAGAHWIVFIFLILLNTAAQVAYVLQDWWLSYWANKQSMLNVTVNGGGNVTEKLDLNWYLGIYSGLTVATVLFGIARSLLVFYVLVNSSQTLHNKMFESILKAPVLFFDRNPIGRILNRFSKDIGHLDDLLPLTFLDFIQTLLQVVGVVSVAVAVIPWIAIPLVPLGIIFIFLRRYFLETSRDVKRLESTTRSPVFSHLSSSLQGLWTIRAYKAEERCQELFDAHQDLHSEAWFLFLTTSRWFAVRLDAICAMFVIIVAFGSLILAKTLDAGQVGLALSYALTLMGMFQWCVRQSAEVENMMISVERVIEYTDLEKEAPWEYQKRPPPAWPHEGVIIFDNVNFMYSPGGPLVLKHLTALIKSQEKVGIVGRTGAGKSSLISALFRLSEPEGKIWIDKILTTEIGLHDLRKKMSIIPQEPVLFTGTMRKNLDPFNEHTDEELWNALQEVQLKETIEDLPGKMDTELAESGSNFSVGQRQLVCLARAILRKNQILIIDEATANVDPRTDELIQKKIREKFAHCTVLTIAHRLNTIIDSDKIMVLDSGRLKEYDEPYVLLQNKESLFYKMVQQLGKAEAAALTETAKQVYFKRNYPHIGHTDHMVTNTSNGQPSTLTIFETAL
The experiment in a line: Flow cytometry (FACS) binding to C6 cells stably transfected to express human ABCC4 (different experiment, Table 4). To be noted: C6 cells stably transfected to express human ABCC4, FACS; different experiment, Table 4. As to the method: as §1, §2, §3, §4

B1: C4.1138: anti-ABCC4 antibody raised in rats; VH SEQ ID NO: 29, VL SEQ ID NO: 149 (antibody, V domains shown)
VH: EVQLKESGPGLVKPSETLSLTCTVSGFSLTSYHVSWVRQPPGKGLEWMGVIWGDGNTAYNSALKSRLSINRDTSKSQVFLKMNSLQTEDTATYYCARHPYYSIPYWGQGASVTVSS
VL: DIVLTQSPTTMAAFPGEKVTITCRASSSVSYMYWYQQKSGASPKSWIYETSKLASGVPDRFSGSGSGTSYSFTISSMETEDAATYYCHQWSSIPLTFGSGTKLEIK
B1: the “Cynomolgus ABCC4 binding” value in the assay on cynomolgus ABCC4 is “−”. For the same molecule, the “Human ABCC4 binding” value with human ABCC4 is on record as “+ (Positive (+)=MFI>3× background level)”.

B2: C4.1071: anti-ABCC4 antibody raised in rats; VH SEQ ID NO: 23, VL SEQ ID NO: 145 (antibody, V domains shown)
VH: EVQWKESGPGLVQPSQTLSLTCTVSGFSLTSYGVSWVRQPPGKGLEWIGAIWSGGGTDYNSALKSRLSISRDTSKSQVLLKMNSLQTEDTAMYFCAGNHYFDYWGQGTMVTVSS
VL: AIQVTQSPNSLSASLGDRVTLTCRASQDINNKMAWYQQKPGEVPQLLIYSASTLQSGTPSRFSGSGSGTDFSFTISHLQSEDFATYYCLQGYSLYTFGAGTKLELKRADAAP
With B2, in the assay with cynomolgus ABCC4, the “Cynomolgus ABCC4 binding” value is listed as “−”. The “Human ABCC4 binding” value with human ABCC4 is recorded as “+ (Positive (+)=MFI>3× background level)”.

B3: C4.970: anti-ABCC4 antibody raised in rats; VH SEQ ID NO: 10, VL SEQ ID NO: 131 (antibody, V domains shown)
VH: EVQLVESGPGLVQPSQTLSLTCTVAGFSLTSYNVHWVRQPPGKGLEWMGVIWNTGDTRYDSALKSRLSISKDTSKSQVFLNMNSLQTEDTATYYCARDDNVYYGMHAMDAWGQGASVTVSS
VL: DIKMIQSPSSLSASLGERVTISCRASENINNYLSWYQKKEDGSVKLLIYHTSRLQPGAPSRFSGSGSGKDYSLTISGLDSEDIATYYCQQGYTPPTFGAGTKLELK
For B3, the “Cynomolgus ABCC4 binding” value in the assay on cynomolgus ABCC4 is listed as “−”. Besides, in the assay with human ABCC4, the “Human ABCC4 binding” value is “+ (Positive (+)=MFI>3× background level)”.

B4: C4.1047A: anti-ABCC4 antibody raised in rats; VH SEQ ID NO: 20, VL SEQ ID NO: 140 (antibody, V domains shown)
VH: EVQLMESGPGLVQPSQTLSLTCTVSGLSLISNNINWVRQPPGKGLEWIGAISGGGSAFYNSALKSRLSFSRDTSKSQVFLKMNSLQTEDTAIYFCARGGSEDPDYFDYWGQGVMVTVSS
VL: ETVMTQTPSSLAVSAGETVTINCRSSQSLLYSGNQKNYLAWYQQKPGQSPKLLIYWSSTRQYGVPDRFIGSGSGTDFTLTISSVQAEDLAIYYCQQYYDTPLTFGSGTKLELK
For B4, the “Cynomolgus ABCC4 binding” value with cynomolgus ABCC4 was “−”. In the assay with human ABCC4, the “Human ABCC4 binding” value is on record as “+ (Positive (+)=MFI>3× background level)”.

B5: C4.1052: anti-ABCC4 antibody raised in rats; VH SEQ ID NO: 20, VL SEQ ID NO: 141 (antibody, V domains shown)
VH: B4 VH
VL: B4 VL with E1D, T2I, T7S, R24K, Y62S, I69M, L112I
In the case of B5, the “Cynomolgus ABCC4 binding” value with cynomolgus ABCC4 is “−”. For the same molecule, in the assay with human ABCC4, the “Human ABCC4 binding” value is recorded as “+ (Positive (+)=MFI>3× background level)”.

B6: C4.1078: anti-ABCC4 antibody raised in rats; VH SEQ ID NO: 26, VL SEQ ID NO: 147 (antibody, V domains shown)
VH: EVQLVESGGGLVQPGGSLRLSCAASGFTFTDFYMSWIRQPPGKTPEWLGVIRNKAYVYTTEYNPSVKGRFTISRDNTQNILYLQMNTLRVEDTAIYYCARNWEGFASWGQGTLVTVSS
VL: DVVMTQTPPSLSVAIGQSVSISCKSSQSLVYSDGKTYLHWLLENSGRSPKRLIYRVSNLDSGVPDRFSGTGSQKDFTLKISRVEAQDLGVYYCAQTTHFPWTFGGGTKLELK
With B6, in the assay on cynomolgus ABCC4, the “Cynomolgus ABCC4 binding” value was “−”. Moreover, the “Human ABCC4 binding” value with human ABCC4 is recorded as “+ (Positive (+)=MFI>3× background level)”.

B7: C4.1006: anti-ABCC4 antibody raised in rats; VH SEQ ID NO: 19, VL SEQ ID NO: 139 (antibody, V domains shown)
VH: EVQLTESGPGLVQPSQTLSLTCTVSGFSLTSYDVHWVRQPPGKGLEWMGRMQNGGSTDYNSALKSRLSISRDTSKSQVFLKMNSVQTEDTAMYFCVRSFIIRGYWGQGASVTVSS
VL: DIVMTQGALPNPVPSGESASITCQSSKSLLYSDGKTYLNWYLQRPGQSPQLLIYWMSIRASGVSDRFSGSGSGTDFTLKISRVEAEDVGVYYCQQFLEFPYTFGAGTKLEIK
In the case of B7, in the assay on cynomolgus ABCC4, the “Cynomolgus ABCC4 binding” value is on record as “−”. Moreover, in the assay with human ABCC4, the “Human ABCC4 binding” value is reported as “+ (Positive (+)=MFI>3× background level)”.

B8: C4.994: anti-ABCC4 antibody raised in rats; VH SEQ ID NO: 17, VL SEQ ID NO: 137 (antibody, V domains shown)
VH: QIQLVQSGPELKKPGESVKISCKASGYTFTDYAIHWVTQAPGKGLKWMGWISTYTGKTTYTDDFKGRFVFSLDASASTANLQINNLKNEDTAAYFCARGGLQWFDYWGQGTLVTVSS
VL: EILLTQSPTAMAASPGEKVTITCRASFRVSYMHWYQQKPGASPKPWIYDTSKLASGVPTRFSGSGSGTSYSFTISSMETEDTATYYCQQWTSNSRTFGGGTKLVLK
As to B8, the “Cynomolgus ABCC4 binding” value in the assay with cynomolgus ABCC4 was “−”. Also, in the assay with human ABCC4, the “Human ABCC4 binding” value was “+ (Positive (+)=MFI>3× background level)”.

B9: C4.1145: anti-ABCC4 antibody raised in rats; VH SEQ ID NO: 32, VL SEQ ID NO: 151 (antibody, V domains shown)
VH: EVKLVESGGGLVQPGRSLKLSCAASGFTFSNYDMAWVRQAPTKGLEWVASIIPSGGTSYYRDSVKGRFTVSRDNAKSTLYLQMDSLRSEDTATYYCARLTTSHYYVMDAWGQGASVTVSS
VL: DIWMTQSPTSMSISVGDRVTMNCKASQNVGSNVDWYQQKTGQSPKLLIYKASNRYTGVPDRFTGSGSGTDFTFTISNMQAEDLAVYYCMQSNSYPWTFGGGTKLELK
For B9, the “Cynomolgus ABCC4 binding” value in the assay with cynomolgus ABCC4 is on record as “−”. For the same molecule, the “Human ABCC4 binding” value with human ABCC4 is “+ (Positive (+)=MFI>3× background level)”.

Source of the values: patent US20240010747A1, “ANTI-MRP4 (ENCODED BY ABCC4 GENE) ANTIBODIES AND USES THEREOF” (Kenjockety Biotechnology, Inc., priority 2020, published 2024).
